This note sets out measurements from patent US20160159928A1 (published 2016).

To fix the notation:
B1: VH4-34+CDR3-IL8_CDR1 Cow IgG (BLV1H12 light chain) (antibody)
VH: QVQLQQWGAGLLKPSETLSLTCTASGFSLSDKAVGWIRQPPGKGLEWIGEINHSGSTNYNPSLKSRVTISVDTSKNQFSLKLSSVTAADTAVYYCTSVHQETKKYQSPRSAKELRCQCIKTYSKPFHPKFIKELRVIESGPHCANTEIIVKLSDGRELCLDPKENWVQRVVEKFLKRAENSGSGSYTYNYEWHVDVWGQGLLVTVSSAS
light: not shown
notes: also called VH4-34 + CDR3-IL8 + Cow CDR1
B2: VH4-34+CDR3-IL8_CDR1 G31D, Y32K IgG (BLV1H12 light chain) (antibody)
VH: QVQLQQWGAGLLKPSETLSLTCAVYGGSFSDKYWSWIRQPPGKGLEWIGEINHSGSTNYNPSLKSRVTISVDTSKNQFSLKLSSVTAADTAVYYCTSVHQETKKYQSPRSAKELRCQCIKTYSKPFHPKFIKELRVIESGPHCANTEIIVKLSDGRELCLDPKENWVQRVVEKFLKRAENSGSGSYTYNYEWHVDVWGQGLLVTVSSAS
light: not shown
notes: also called VH4-34 + CDR3-IL8 + E31D, Y32K
B3: VH1-69+CDR3-IL8 IgG (antibody)
VH: QVQLVQSGAEVKKPGSSVKVSCKASGGTFSSYAISWVRQAPGQGLEWMGGIIPIFGTANYAQKFQGRVTITADKSTSTAYMELSSLRSEDTAVYYCTSVHQETKKYQSPRSAKELRCQCIKTYSKPFHPKFIKELRVIESGPHCANTEIIVKLSDGRELCLDPKENWVQRVVEKFLKRAENSGSGSYTYNYEWHVDVWGQGLLVTVSSAS
light: not shown
notes: also called VH1-69 BLVCDR3IL8
B4: VH3-23+CDR3-IL8 IgG (antibody)
VH: EVQLLESGGGLVQPGGSLRLSCAASGFTFSSYAMSWVRQAPGKGLEWVSAISGSGGSTYYADSVKGRFTISRDNSKNTLYLQMNSLRAEDTAVYYCTSVHQETKKYQSPRSAKELRCQCIKTYSKPFHPKFIKELRVIESGPHCANTEIIVKLSDGRELCLDPKENWVQRVVEKFLKRAENSGSGSYTYNYEWHVDVWGQGLLVTVSSAS
light: not shown
notes: also called VH3-23 BLVCDR3IL8
B5: VH4-4+CDR3-IL8 IgG (antibody)
VH: QVQLQESGPGLVKPSETLSLTCTVSGGSISSYYWSWIRQPAGKGLEWIGRIYTSGSTNYNPSLKSRVTMSVDTSKNQFSLKLSSVTAADTAVYYCTSVHQETKKYQSPRSAKELRCQCIKTYSKPFHPKFIKELRVIESGPHCANTEIIVKLSDGRELCLDPKENWVQRVVEKFLKRAENSGSGSYTYNYEWHVDVWGQGLLVTVSSAS
light: not shown
notes: also called VH4-4 BLVCDR3IL8
B6: VH4-34+CDR3-IL8_CDR1 Cow with light chain V1-51 CDR2 DNN to GDT (antibody)
VH: QVQLQQWGAGLLKPSETLSLTCTASGFSLSDKAVGWIRQPPGKGLEWIGEINHSGSTNYNPSLKSRVTISVDTSKNQFSLKLSSVTAADTAVYYCTSVHQETKKYQSPRSAKELRCQCIKTYSKPFHPKFIKELRVIESGPHCANTEIIVKLSDGRELCLDPKENWVQRVVEKFLKRAENSGSGSYTYNYEWHVDVWGQGLLVTVSSAS
light: QSVLTQPPSVSAAPGQKVTISCSGSSSNIGNNYVSWYQQLPGTAPKLLIYGDTKRPSGIPDRFSGSKSGTSATLGITGLQTGDEADYYCASAEDSSSNAVFGSGTTLTVLGQPKAAPSVTLFPPSSEELQANKATLVCLISDFYPGAVTVAWKADSSPVKAGVETTTPSKQSNNKYAASSYLSLTPEQWKSHRSYSCQVTHEGSTVEKTVAPTECS
B7: VH4-34+CDR3-IL8_CDR1 Cow_CDR2 Cow with light chain V1-51 S2A, T5N, P8S, A12G, A13S, P14L (antibody)
VH: QVQLQQWGAGLLKPSETLSLTCTASGFSLSDKAVGWIRQPPGKGLEWLGSIDTGGNTGYNPSLKSRVTISVDTSKNQFSLKLSSVTAADTAVYYCTSVHQETKKYQSPRSAKELRCQCIKTYSKPFHPKFIKELRVIESGPHCANTEIIVKLSDGRELCLDPKENWVQRVVEKFLKRAENSGSGSYTYNYEWHVDVWGQGLLVTVSSAS
light: QAVLNQPSSVSGSLGQKVTISCSGSSSNIGNNYVSWYQQLPGTAPKLLIYDNNKRPSGIPDRFSGSKSGTSATLGITGLQTGDEADYYCASAEDSSSNAVFGSGTTLTVLGQPKAAPSVTLFPPSSEELQANKATLVCLISDFYPGAVTVAWKADSSPVKAGVETTTPSKQSNNKYAASSYLSLTPEQWKSHRSYSCQVTHEGSTVEKTVAPTECS
notes: also called BID 36; VH4-34 MutB IL-8 CDR1cow CDR2cow
B8: VH4-34+CDR3-IL8_CDR1 Cow with light chain V1-51 S2A, T5N, P8S, A12G, A13S, P14L & DNN to GDT (antibody)
VH: QVQLQQWGAGLLKPSETLSLTCTASGFSLSDKAVGWIRQPPGKGLEWIGEINHSGSTNYNPSLKSRVTISVDTSKNQFSLKLSSVTAADTAVYYCTSVHQETKKYQSPRSAKELRCQCIKTYSKPFHPKFIKELRVIESGPHCANTEIIVKLSDGRELCLDPKENWVQRVVEKFLKRAENSGSGSYTYNYEWHVDVWGQGLLVTVSSAS
light: QAVLNQPSSVSGSLGQKVTISCSGSSSNIGNNYVSWYQQLPGTAPKLLIYGDTKRPSGIPDRFSGSKSGTSATLGITGLQTGDEADYYCASAEDSSSNAVFGSGTTLTVLGQPKAAPSVTLFPPSSEELQANKATLVCLISDFYPGAVTVAWKADSSPVKAGVETTTPSKQSNNKYAASSYLSLTPEQWKSHRSYSCQVTHEGSTVEKTVAPTECS
B9: VH4-34+CDR3-IL8_CDR1 Cow with light chain V1-51 S2A, T5N, P8S, A12G, A13S, P14L (antibody)
VH: QVQLQQWGAGLLKPSETLSLTCTASGFSLSDKAVGWIRQPPGKGLEWIGEINHSGSTNYNPSLKSRVTISVDTSKNQFSLKLSSVTAADTAVYYCTSVHQETKKYQSPRSAKELRCQCIKTYSKPFHPKFIKELRVIESGPHCANTEIIVKLSDGRELCLDPKENWVQRVVEKFLKRAENSGSGSYTYNYEWHVDVWGQGLLVTVSSAS
light: QAVLNQPSSVSGSLGQKVTISCSGSSSNIGNNYVSWYQQLPGTAPKLLIYDNNKRPSGIPDRFSGSKSGTSATLGITGLQTGDEADYYCASAEDSSSNAVFGSGTTLTVLGQPKAAPSVTLFPPSSEELQANKATLVCLISDFYPGAVTVAWKADSSPVKAGVETTTPSKQSNNKYAASSYLSLTPEQWKSHRSYSCQVTHEGSTVEKTVAPTECS
notes: also called BID 34
B10: VH4-34+CDR3-IL8_CDR1 Cow_CDR2 Cow with light chain V1-51 CDR2 DNNKRP to GDTSRA (antibody)
VH: QVQLQQWGAGLLKPSETLSLTCTASGFSLSDKAVGWIRQPPGKGLEWLGSIDTGGNTGYNPSLKSRVTISVDTSKNQFSLKLSSVTAADTAVYYCTSVHQETKKYQSPRSAKELRCQCIKTYSKPFHPKFIKELRVIESGPHCANTEIIVKLSDGRELCLDPKENWVQRVVEKFLKRAENSGSGSYTYNYEWHVDVWGQGLLVTVSSAS
light: QSVLTQPPSVSAAPGQKVTISCSGSSSNIGNNYVSWYQQLPGTAPKLLIYGDTSRASGIPDRFSGSKSGTSATLGITGLQTGDEADYYCASAEDSSSNAVFGSGTTLTVLGQPKAAPSVTLFPPSSEELQANKATLVCLISDFYPGAVTVAWKADSSPVKAGVETTTPSKQSNNKYAASSYLSLTPEQWKSHRSYSCQVTHEGSTVEKTVAPTECS
B11: VH4-34+CDR3-IL8_CDR1 Cow_CDR2 Cow with light chain V1-51 CDR1 I29V, N32G (antibody)
VH: QVQLQQWGAGLLKPSETLSLTCTASGFSLSDKAVGWIRQPPGKGLEWLGSIDTGGNTGYNPSLKSRVTISVDTSKNQFSLKLSSVTAADTAVYYCTSVHQETKKYQSPRSAKELRCQCIKTYSKPFHPKFIKELRVIESGPHCANTEIIVKLSDGRELCLDPKENWVQRVVEKFLKRAENSGSGSYTYNYEWHVDVWGQGLLVTVSSAS
light: QSVLTQPPSVSAAPGQKVTISCSGSSSNVGNGYVSWYQQLPGTAPKLLIYDNNKRPSGIPDRFSGSKSGTSATLGITGLQTGDEADYYCASAEDSSSNAVFGSGTTLTVLGQPKAAPSVTLFPPSSEELQANKATLVCLISDFYPGAVTVAWKADSSPVKAGVETTTPSKQSNNKYAASSYLSLTPEQWKSHRSYSCQVTHEGSTVEKTVAPTECS
B12: VH4-34+CDR3-IL8_CDR1 Cow with light chain V1-51 CDR2 DNNKRP to GDTSRA (antibody)
VH: QVQLQQWGAGLLKPSETLSLTCTASGFSLSDKAVGWIRQPPGKGLEWIGEINHSGSTNYNPSLKSRVTISVDTSKNQFSLKLSSVTAADTAVYYCTSVHQETKKYQSPRSAKELRCQCIKTYSKPFHPKFIKELRVIESGPHCANTEIIVKLSDGRELCLDPKENWVQRVVEKFLKRAENSGSGSYTYNYEWHVDVWGQGLLVTVSSAS
light: QSVLTQPPSVSAAPGQKVTISCSGSSSNIGNNYVSWYQQLPGTAPKLLIYGDTSRASGIPDRFSGSKSGTSATLGITGLQTGDEADYYCASAEDSSSNAVFGSGTTLTVLGQPKAAPSVTLFPPSSEELQANKATLVCLISDFYPGAVTVAWKADSSPVKAGVETTTPSKQSNNKYAASSYLSLTPEQWKSHRSYSCQVTHEGSTVEKTVAPTECS
B13: VH4-34+CDR3-IL8_CDR1 Cow with light chain V1-51 CDR1 I29V, N32G (antibody)
VH: QVQLQQWGAGLLKPSETLSLTCTASGFSLSDKAVGWIRQPPGKGLEWIGEINHSGSTNYNPSLKSRVTISVDTSKNQFSLKLSSVTAADTAVYYCTSVHQETKKYQSPRSAKELRCQCIKTYSKPFHPKFIKELRVIESGPHCANTEIIVKLSDGRELCLDPKENWVQRVVEKFLKRAENSGSGSYTYNYEWHVDVWGQGLLVTVSSAS
light: QSVLTQPPSVSAAPGQKVTISCSGSSSNVGNGYVSWYQQLPGTAPKLLIYDNNKRPSGIPDRFSGSKSGTSATLGITGLQTGDEADYYCASAEDSSSNAVFGSGTTLTVLGQPKAAPSVTLFPPSSEELQANKATLVCLISDFYPGAVTVAWKADSSPVKAGVETTTPSKQSNNKYAASSYLSLTPEQWKSHRSYSCQVTHEGSTVEKTVAPTECS
B14: VH4-34+CDR3-IL8_CDR1 Cow_CDR2 Cow with light chain V1-51 CDR2 DNN to GDT (antibody)
VH: QVQLQQWGAGLLKPSETLSLTCTASGFSLSDKAVGWIRQPPGKGLEWLGSIDTGGNTGYNPSLKSRVTISVDTSKNQFSLKLSSVTAADTAVYYCTSVHQETKKYQSPRSAKELRCQCIKTYSKPFHPKFIKELRVIESGPHCANTEIIVKLSDGRELCLDPKENWVQRVVEKFLKRAENSGSGSYTYNYEWHVDVWGQGLLVTVSSAS
light: QSVLTQPPSVSAAPGQKVTISCSGSSSNIGNNYVSWYQQLPGTAPKLLIYGDTKRPSGIPDRFSGSKSGTSATLGITGLQTGDEADYYCASAEDSSSNAVFGSGTTLTVLGQPKAAPSVTLFPPSSEELQANKATLVCLISDFYPGAVTVAWKADSSPVKAGVETTTPSKQSNNKYAASSYLSLTPEQWKSHRSYSCQVTHEGSTVEKTVAPTECS

The first experiment concerns the target T1, CXCR1 (UniProt P25024 1-350, limits assumed).
T1 construct: whole, on cells; also called CXCR1 receptor; CXCR1-U2OS
T1 sequence (looked up): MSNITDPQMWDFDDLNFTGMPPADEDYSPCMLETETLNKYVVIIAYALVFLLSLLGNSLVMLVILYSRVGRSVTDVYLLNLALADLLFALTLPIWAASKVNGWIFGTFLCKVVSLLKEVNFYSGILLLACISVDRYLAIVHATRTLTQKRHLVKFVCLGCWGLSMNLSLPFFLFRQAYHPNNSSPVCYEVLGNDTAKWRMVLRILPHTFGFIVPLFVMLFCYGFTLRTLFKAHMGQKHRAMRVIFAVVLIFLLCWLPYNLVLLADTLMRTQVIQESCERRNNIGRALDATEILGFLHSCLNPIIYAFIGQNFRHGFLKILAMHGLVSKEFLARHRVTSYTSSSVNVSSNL
Briefly: flow cytometry; fluorescence on CXCR1-U2OS over parental U2OS cells.
Procedure: (§1) Briefly, a cell line expressing functionally validated CXCR1 derived from U2OS cells was obtained from DiscoveRx and cultured per manufacturer's instructions (Cat#93-0226C3, DiscoveRx Corporation, Freemont, Calif.). The parental cell line U2OS was obtained from ATCC and cultured under the same conditions as the CXCR1 cells. Cell culture supernatants were then tested for binding to cells by flow cytometry. The adherent U2OS or CXCR1-U2OS cells were dissociated with Accutase (Innovative Cell Technologies, Inc., San Diego, Calif.), neutralized with an equal volume of media containing 10% serum, centrifuged at 1000 g, and resuspended in PBS with 2% BSA. Next, cells were dispensed into microtiter plates to achieve between 30,000 to 300,000 cells per well, centrifuged again, and resuspended in cell culture supernatant containing expressed IgG, or a dilution of IgG-containing cell culture supernatant. A fluorescent-conjugated anti-Human Fc antibody was used to detect binding of the expressed antibody to cells.
For the molecule B1, the “FACS CXCR1/Parental Ratio” value stood at 2.1.

On to B2, for which the “FACS CXCR1/Parental Ratio” value turned out to be 8.1.

The target of the next experiment is T1, CXCR1. The description is as above. The source holds these as a separate data set.
Procedure: as §1
B3: the “Ratio of CXCR1/Parental” value came out at 4.

B4: the “Ratio of CXCR1/Parental” value is 2.7.

For the molecule B5, the “Ratio of CXCR1/Parental” value was determined as 3.1.

Another experiment has as its target T1, CXCR1. Briefly: flow cytometry, IgG 10 nM, 2% BSA in PBS plus 2 ug/ml heparin sulfate.
Procedure: Transfections and ELISA were carried out as described above, and flow cytometry was used to evaluate CXCR1 binding specificity as previously described, with the modification that cells were resuspended in 2% BSA in PBS plus 2 ug/ml Heparin sulfate, and IgGs were normalized to 10 nM during incubation on cells.
In the case of B6, the “CXCR1 specificity (CXCR1/parental ratio)” value was 5.6.

In the case of B7, the “CXCR1 specificity (CXCR1/parental ratio)” value is 12.2.

For the molecule B8, the “CXCR1 specificity (CXCR1/parental ratio)” value turned out to be 6.8.

B9: the “CXCR1 specificity (CXCR1/parental ratio)” value amounted to 4.7.

For the molecule B10, the “CXCR1 specificity (CXCR1/parental ratio)” value was 6.9.

For the molecule B11, the “CXCR1 specificity (CXCR1/parental ratio)” value is 11.8.

On to B12, for which the “CXCR1 specificity (CXCR1/parental ratio)” value is 8.

For the molecule B13, the “CXCR1 specificity (CXCR1/parental ratio)” value came out at 8.9.

For the molecule B14, the “CXCR1 specificity (CXCR1/parental ratio)” value stood at 16.7.
